Source: paper PMC6633398

Experiments:
[1] = target: CASP (encoded by CUX1; isoform 4) (UniProt Q13948); experiment: co-immunoprecipitation (IP: c-Myc) from cytosol, western blot quantification; conditions: absence of detergent, n=4, parent: est. 1.0, read off a plot
[2] = target: golgin-84 (also known as GOLGA5) (UniProt Q8TBA6); experiment: as above; conditions: absence of detergent, n=4, parent: est. 1.0, read off a plot
Chain of golgin-84 (also known as GOLGA5) (Q8TBA6 whole entry): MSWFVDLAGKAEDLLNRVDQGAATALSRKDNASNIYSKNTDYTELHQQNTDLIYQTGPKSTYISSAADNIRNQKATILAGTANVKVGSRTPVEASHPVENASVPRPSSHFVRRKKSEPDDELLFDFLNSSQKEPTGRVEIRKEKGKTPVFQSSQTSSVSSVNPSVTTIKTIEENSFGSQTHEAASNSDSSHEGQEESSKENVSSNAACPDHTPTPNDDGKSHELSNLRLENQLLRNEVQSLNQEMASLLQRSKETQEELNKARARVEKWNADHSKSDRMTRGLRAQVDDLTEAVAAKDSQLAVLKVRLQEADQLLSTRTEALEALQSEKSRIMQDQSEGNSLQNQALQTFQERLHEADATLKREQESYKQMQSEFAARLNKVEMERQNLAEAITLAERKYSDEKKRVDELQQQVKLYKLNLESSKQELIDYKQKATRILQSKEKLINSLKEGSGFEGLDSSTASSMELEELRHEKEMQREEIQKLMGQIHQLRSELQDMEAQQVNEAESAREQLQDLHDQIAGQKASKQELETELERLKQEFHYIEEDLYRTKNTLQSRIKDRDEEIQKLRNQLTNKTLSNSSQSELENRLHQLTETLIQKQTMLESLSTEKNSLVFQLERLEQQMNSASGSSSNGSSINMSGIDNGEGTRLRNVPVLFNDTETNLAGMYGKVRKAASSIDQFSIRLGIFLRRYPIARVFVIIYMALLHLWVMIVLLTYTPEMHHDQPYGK

Chain of CASP (encoded by CUX1; isoform 4) (Q13948 whole entry, canonical isoform): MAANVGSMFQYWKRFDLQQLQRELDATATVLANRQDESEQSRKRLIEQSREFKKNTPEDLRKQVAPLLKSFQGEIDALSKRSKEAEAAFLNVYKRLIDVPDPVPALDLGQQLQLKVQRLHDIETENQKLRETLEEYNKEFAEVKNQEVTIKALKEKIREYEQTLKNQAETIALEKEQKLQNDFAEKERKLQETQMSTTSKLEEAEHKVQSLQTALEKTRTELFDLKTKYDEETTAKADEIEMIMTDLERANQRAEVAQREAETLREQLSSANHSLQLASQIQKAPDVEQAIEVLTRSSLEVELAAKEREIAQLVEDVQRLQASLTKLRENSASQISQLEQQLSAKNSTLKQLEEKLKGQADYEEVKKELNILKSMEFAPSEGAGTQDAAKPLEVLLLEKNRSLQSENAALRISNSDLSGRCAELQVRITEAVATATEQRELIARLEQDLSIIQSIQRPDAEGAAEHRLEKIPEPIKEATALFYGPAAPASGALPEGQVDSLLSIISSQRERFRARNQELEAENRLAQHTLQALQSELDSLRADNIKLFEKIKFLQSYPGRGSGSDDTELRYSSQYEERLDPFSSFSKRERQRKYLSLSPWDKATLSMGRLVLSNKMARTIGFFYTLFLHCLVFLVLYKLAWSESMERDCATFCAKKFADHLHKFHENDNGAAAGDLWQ
Chain of c-Myc–TRC40 (wild-type TRC40, also known as ASNA1), O43681 D74E (O43681 whole entry D74E): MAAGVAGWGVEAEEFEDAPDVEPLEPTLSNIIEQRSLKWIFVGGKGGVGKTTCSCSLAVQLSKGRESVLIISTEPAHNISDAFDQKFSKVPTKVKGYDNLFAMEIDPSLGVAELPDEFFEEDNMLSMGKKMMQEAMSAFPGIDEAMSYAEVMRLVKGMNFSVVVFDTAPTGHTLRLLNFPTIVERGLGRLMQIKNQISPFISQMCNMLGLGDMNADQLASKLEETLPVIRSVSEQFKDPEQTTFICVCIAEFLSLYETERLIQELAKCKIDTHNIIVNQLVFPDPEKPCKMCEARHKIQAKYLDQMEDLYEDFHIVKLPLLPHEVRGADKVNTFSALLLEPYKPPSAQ
Chain of c-Myc–TRC40 (wild-type TRC40, also known as ASNA1), O43681 D74E; L190K; I193K (O43681 whole entry D74E/L190K/I193K): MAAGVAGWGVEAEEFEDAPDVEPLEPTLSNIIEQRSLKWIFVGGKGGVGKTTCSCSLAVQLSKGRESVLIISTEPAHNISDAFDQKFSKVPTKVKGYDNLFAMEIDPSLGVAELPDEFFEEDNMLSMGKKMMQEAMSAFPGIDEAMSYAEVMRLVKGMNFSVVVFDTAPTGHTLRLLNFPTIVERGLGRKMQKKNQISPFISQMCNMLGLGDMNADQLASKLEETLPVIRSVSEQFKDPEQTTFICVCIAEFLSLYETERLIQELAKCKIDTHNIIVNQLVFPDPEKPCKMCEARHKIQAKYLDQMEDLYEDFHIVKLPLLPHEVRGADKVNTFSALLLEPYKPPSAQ
Chain of c-Myc–TRC40 (wild-type TRC40, also known as ASNA1), O43681 D74E; L190D; I193D (O43681 whole entry D74E/L190D/I193D): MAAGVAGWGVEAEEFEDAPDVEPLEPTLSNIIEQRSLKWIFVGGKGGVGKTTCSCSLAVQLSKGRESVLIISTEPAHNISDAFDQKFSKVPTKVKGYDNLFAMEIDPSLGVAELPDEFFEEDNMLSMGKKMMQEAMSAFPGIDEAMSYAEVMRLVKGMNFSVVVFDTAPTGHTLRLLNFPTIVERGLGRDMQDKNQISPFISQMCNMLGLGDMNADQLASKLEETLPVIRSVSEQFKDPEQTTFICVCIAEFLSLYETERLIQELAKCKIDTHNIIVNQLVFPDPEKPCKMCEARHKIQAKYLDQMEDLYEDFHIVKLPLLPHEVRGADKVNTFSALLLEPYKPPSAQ

Substance	ratio to parent [1]	ratio to parent [2]
c-Myc–TRC40 (wild-type TRC40, also known as ASNA1), O43681 D74E	4.7	13
c-Myc–TRC40 (wild-type TRC40, also known as ASNA1), O43681 D74E; L190D; I193D	23	21
c-Myc–TRC40 (wild-type TRC40, also known as ASNA1), O43681 D74E; L190K; I193K	14	9
